Measured values from the Human Domainome abundance scans (Beltran et al. 2025).
± gives the uncertainty stated by the source.

B1: Far upstream element-binding protein 2, residues 142 to 214; numbered along this chain, Q92945 (parent)
chain: RTSMTEEYRVPDGMVGLIIGRGGEQINKIQQDSGCKVQISPDSGGLPERSVSLTGAPESVQKAKMMLDDIVSR
B2: Double-stranded RNA-binding protein Staufen homolog 1, residues 183 to 249; numbered along this chain, O95793 (parent)
chain: KSEISQVFEIALKRNLPVNFEVARESGPPHMKNFVTKVSVGEFVGEGEGKSKKISKKNAAIAVLEEL

Variants of: B1
Experiment: abundance fitness (aPCA) (normalised: wild type 0, dead -1); higher = more abundant; growth selection in yeast, the domain comes from the species named
Conditions: Homo sapiens

Abundance fitness, by site and new letter:
D69: Y -0.27 ± 0.09
I70: A -0.295 ± 0.046 | C -0.141 ± 0.067 | D -0.574 ± 0.073 | E -0.416 ± 0.055 | F -0.235 ± 0.076 | G -0.497 ± 0.045 | K -0.395 ± 0.062 | L 0.051 ± 0.041 | P -0.555 ± 0.06 | R -0.568 ± 0.043 | S -0.504 ± 0.051 | T -0.344 ± 0.052 | V -0.059 ± 0.045 | W -0.319 ± 0.052 | Y -0.153 ± 0.081
V71: A -0.142 ± 0.046 | C -0.052 ± 0.064 | D -0.458 ± 0.073 | E -0.485 ± 0.052 | F -0.157 ± 0.11 | G -0.294 ± 0.039 | I -0.057 ± 0.079 | K -0.174 ± 0.057 | L 0.001 ± 0.046 | M -0.037 ± 0.061 | N -0.461 ± 0.1 | P -0.553 ± 0.059 | Q -0.296 ± 0.06 | R -0.224 ± 0.04 | T -0.032 ± 0.051 | W -0.211 ± 0.051 | Y -0.22 ± 0.1
S72: A 0.016 ± 0.046 | C -0.116 ± 0.067 | D -0.032 ± 0.061 | E 0.007 ± 0.054 | F -0.176 ± 0.075 | G 0.118 ± 0.04 | H 0.019 ± 0.066 | I -0.086 ± 0.069 | K -0.048 ± 0.062 | L -0.103 ± 0.043 | M -0.024 ± 0.06 | N 0.026 ± 0.076 | P -0.282 ± 0.056 | R 0.052 ± 0.039 | T -0.042 ± 0.052 | V -0.085 ± 0.045 | W -0.191 ± 0.052 | Y -0.079 ± 0.074
R73: A 0.034 ± 0.057 | C 0.108 ± 0.083 | D 0.021 ± 0.076 | E -0.013 ± 0.055 | F -0.162 ± 0.19 | G 0.177 ± 0.043 | H -0.099 ± 0.15 | I 0.027 ± 0.1 | K 0.016 ± 0.069 | L -0.004 ± 0.054 | S 0.055 ± 0.06 | T 0.124 ± 0.063 | V -0.074 ± 0.049 | W -0.201 ± 0.061

Variants of: B2
Experiment: as above
Conditions: Homo sapiens

Abundance fitness: each site, then its substitutions
K1: A -0.436 ± 0.11 | C -0.177 ± 0.1 | D -0.235 ± 0.095 | E -0.263 ± 0.081 | F -0.602 ± 0.28 | G -0.175 ± 0.044 | H -0.738 ± 0.2 | I -0.201 ± 0.092 | L -0.3 ± 0.052 | N -0.079 ± 0.12 | R -0.178 ± 0.048 | S -0.316 ± 0.071 | T -0.166 ± 0.065 | V -0.335 ± 0.054 | W -0.514 ± 0.073 | Y -0.211 ± 0.11
S2: A -0.41 ± 0.051 | C -0.482 ± 0.11 | D -0.382 ± 0.072 | E -0.381 ± 0.082 | F -0.709 ± 0.098 | G -0.136 ± 0.052 | H -0.546 ± 0.096 | I -1.02 ± 0.26 | K -0.015 ± 0.099 | P -0.328 ± 0.051 | Q -0.305 ± 0.076 | R -0.382 ± 0.048 | T -0.235 ± 0.052 | V -0.7 ± 0.11 | W -0.902 ± 0.16 | Y -0.653 ± 0.087
E3: A -0.049 ± 0.041 | C -0.205 ± 0.064 | D -0.286 ± 0.059 | F -0.177 ± 0.07 | G -0.551 ± 0.04 | H -0.219 ± 0.072 | I -0.001 ± 0.082 | K -0.194 ± 0.072 | L -0.231 ± 0.043 | M -0.509 ± 0.055 | N -0.396 ± 0.086 | P -0.023 ± 0.07 | Q -0.247 ± 0.062 | R -0.551 ± 0.047 | S -0.208 ± 0.045 | T -0.236 ± 0.056 | V -0.022 ± 0.037 | W -0.309 ± 0.082 | Y -0.098 ± 0.079
I4: A -0.705 ± 0.064 | C -0.417 ± 0.084 | D -0.388 ± 0.077 | E -0.44 ± 0.062 | F -0.534 ± 0.07 | G -0.735 ± 0.056 | H -0.447 ± 0.067 | K -0.516 ± 0.062 | M -0.292 ± 0.054 | N -0.56 ± 0.094 | Q -0.661 ± 0.073 | R -0.7 ± 0.042 | S -0.461 ± 0.056 | T -0.391 ± 0.062 | V -0.059 ± 0.037 | W -0.359 ± 0.051 | Y -0.74 ± 0.092
S5: F -0.512 ± 0.2 | P -0.528 ± 0.16
Q6: C -0.283 ± 0.033 | D -0.435 ± 0.033 | E -0.021 ± 0.037 | F -0.653 ± 0.038 | G -0.634 ± 0.028 | H -0.415 ± 0.034 | I -0.393 ± 0.034 | L -0.158 ± 0.027 | M -0.169 ± 0.038 | N -0.494 ± 0.03 | P -0.697 ± 0.038 | R -0.097 ± 0.026 | S -0.255 ± 0.026 | T -0.198 ± 0.03
V7: A -0.781 ± 0.055 | C -0.607 ± 0.077 | D -0.676 ± 0.075 | E -0.486 ± 0.06 | F -0.748 ± 0.083 | G -0.626 ± 0.046 | H -0.857 ± 0.14 | I -0.24 ± 0.043 | K -0.586 ± 0.059 | L -0.142 ± 0.038 | M -0.295 ± 0.056 | P -0.68 ± 0.066 | Q -0.681 ± 0.062 | R -0.631 ± 0.039 | S -0.656 ± 0.052 | T -0.717 ± 0.075 | W -1.13 ± 0.081 | Y -0.782 ± 0.14
